Test results published in patent US20250326828A1 (STAIDSON BEIJING BIOPHARMACEUTICALS, published 2025).
Numbering of substitutions follows the chain as printed.

T1: human GDF15-his (human)
T1 chain: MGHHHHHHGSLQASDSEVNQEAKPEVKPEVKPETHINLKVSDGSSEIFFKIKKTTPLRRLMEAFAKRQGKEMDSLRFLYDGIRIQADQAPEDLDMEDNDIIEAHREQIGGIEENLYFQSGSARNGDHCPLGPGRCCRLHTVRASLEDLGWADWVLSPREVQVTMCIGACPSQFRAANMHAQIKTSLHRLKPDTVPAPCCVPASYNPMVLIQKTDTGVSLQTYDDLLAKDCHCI

T2: human GDF15-hFc (human)
T2 construct: Recombinant hFc-tagged fusion protein expressed in 293F cells
T2 chain: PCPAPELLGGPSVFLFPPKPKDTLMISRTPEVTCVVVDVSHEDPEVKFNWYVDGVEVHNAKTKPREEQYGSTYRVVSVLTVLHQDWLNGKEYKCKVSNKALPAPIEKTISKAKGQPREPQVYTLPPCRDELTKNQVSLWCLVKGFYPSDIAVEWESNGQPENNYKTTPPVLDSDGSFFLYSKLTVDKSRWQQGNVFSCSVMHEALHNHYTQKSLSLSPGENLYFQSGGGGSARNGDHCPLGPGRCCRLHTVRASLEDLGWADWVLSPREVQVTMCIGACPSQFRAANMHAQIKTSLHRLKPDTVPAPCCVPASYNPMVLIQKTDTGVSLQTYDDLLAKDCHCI

T3: rhesus monkey GDF15-hFc (rhesus monkey)
T3 chain: T2 chain with H237R, R252H, A285E, T294M, S295N, I343V

T4: mouse GDF15-hFc (mouse)
T4 chain: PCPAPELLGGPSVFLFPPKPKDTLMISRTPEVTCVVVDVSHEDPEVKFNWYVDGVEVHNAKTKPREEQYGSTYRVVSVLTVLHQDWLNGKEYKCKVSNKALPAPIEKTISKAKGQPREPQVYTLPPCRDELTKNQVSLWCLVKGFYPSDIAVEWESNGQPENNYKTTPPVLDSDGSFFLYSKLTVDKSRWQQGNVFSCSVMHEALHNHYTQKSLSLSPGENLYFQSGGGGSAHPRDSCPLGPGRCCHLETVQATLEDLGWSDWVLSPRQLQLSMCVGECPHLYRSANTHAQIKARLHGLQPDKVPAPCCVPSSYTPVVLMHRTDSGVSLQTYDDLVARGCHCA

B1: GDF-R40-rabIg1 (antibody, V domains shown)
VH: QSVKESEGRLVTPGTPLTLTCTASGFSLSSHWMSWVRQAPGKGLEWIGFVSPSGRAYYTSWVNGRFTISKTSTTVDLKITSPTTEDTATYFCARGYTSGLDIWGPGTLVTVSS
VL: AIDMTQTPSPVSATVGGTVTISCQSSKSVVNGDWLAWYQQKPGQPPKLLIYDAATLASGVPSRFKGSGSGTQFTLTISDVQCADAATYYCAGVYNNDSDNGFGGGTEVVVK
notes: Full-length rabbit antibody: rabbit IgG1 heavy constant and rabbit light constant; also called GDF15-R40-rabIg1
B2: GDF-R46-rabIg1 (antibody, V domains shown)
VH: SQTVKESGGRLVTPGTPLTLTCTASGFSLSNYYMSWVRQAPGEGLEWIGMISFSGTTHATWAKGRFTISKTSTTVDLKITSPTSEDTATYFCARVVYAGWTYPLGIWGPGTLVTVSS
VL: AQVMTQTPASVSEPVGGTVTIKCQASQSISSVLSWYQQKPGQPPKVLIYEASTLASGVPSRFKGSGSGTDFTLAISDLECADAATYYCQANYDVYNYGNPFGGGTEVVVK
notes: Full-length rabbit antibody: rabbit IgG1 heavy constant and rabbit light constant; also called GDF15-R46-rabIg1
B3: hum_R54-1 (antibody, V domains shown)
VH: EVQLLESGGGLVQPGGSLRLSCAVSGFSLSSYDMTWVRQAPGKGLEWIGIISGSGNTYYASWAKGRFTISRDNSKNTVYLQMNSLRAEDTAVYFCARGILVYADYGDHNLWGQGTLVTVSS
VL: DIVMTQSPATLSVSPGERATLSCQASEDIYTNLAWFQQKPGQPPRLLIYAASTLASGIPARFSGSGSGTEFTLTISSLQSEDFAVYFCLGVYTYISAEGAFGQGTKVEIK
notes: Tested in human IgG1 format
B4: hum_R54-8 (antibody, V domains shown)
VH: B3 VH with N56S, R71K, N73S
VL: B3 VL with F87Y
notes: Tested in human IgG1 format
B5: hum_R54-2 (antibody, V domains shown)
VH: B3 VH with G53S
VL: B3 VL
notes: Tested in human IgG1 format
B6: hum_R54-5 (antibody, V domains shown)
VH: B3 VH with R71K, N73S
VL: B3 VL with F87Y
notes: Tested in human IgG1 format
B7: hum_R54-3 (antibody, V domains shown)
VH: B3 VH with G53N, N56S
VL: B3 VL
notes: Tested in human IgG1 format
B8: hum_R54-6 (antibody, V domains shown)
VH: B3 VH with G53S, R71K, N73S
VL: B3 VL with F87Y
notes: Tested in human IgG1 format
B9: hum_R54-4 (antibody, V domains shown)
VH: B3 VH with N56S
VL: B3 VL
notes: Tested in human IgG1 format
B10: hum_R54-7 (antibody, V domains shown)
VH: B3 VH with G53N, N56S, R71K, N73S
VL: B3 VL with F87Y
notes: Tested in human IgG1 format
B11: hum_R37-1 (antibody, V domains shown)
VH: EVQLVESGGGLVKPGGSLRLSCAASGFSLSNYYMSWVRQAPGKGLEWIGMISFSGTTYATWAKGRFTISKDSSKNTVYLQINSLKTEDTAVYFCARVVYAGWTYPLGIWGQGTLVTVSS
VL: DIQLTQSPSSLSASVGDRVTITCQASQSISSVLSWYQQKPGKPPKALIYEASILASGVPSRFSGSGSGTDFTLTISSLQPEDFATYYCQANYDVYNYGNPFGGGTKVEIK
notes: Tested in human IgG1 format
B12: hum_R37-2 (antibody, V domains shown)
VH: EVQLVESGGGLVKPGGSLRLSCAASGFSLSNYYMSWVRQAPGKGLEWIGMISFSGTTYATWAKGRFTISKDSSTVYLQINSLKTEDTAVYFCARVVYAGWTYPLGIWGQGTLVTVSS
VL: B11 VL
notes: Tested in human IgG1 format
B13: hum_R37-5 (antibody, V domains shown)
VH: B11 VH with I48V, K70R, S72D
VL: B11 VL
notes: Tested in human IgG1 format
B14: hum_R37-3 (antibody, V domains shown)
VH: B11 VH with S72D
VL: B11 VL
notes: Tested in human IgG1 format

Molecular target: T1, human GDF15-his
Test: cell-based or functional assay

IC50, 293T-GFRAL/RET-Luc SRE luciferase reporter cells stimulated with human GDF15-his (15 ng/ml)	Binder
0.27 nM	B1
0.19 nM	B2

Molecular target: T1, human GDF15-his
Test: cell-based or functional assay
Remark: another data set of the same source

IC50, GFRAL/RET reporter cell assay as in Example 2	Binder
0.11 nM	B3
0.03 nM	B4
0.1 nM	B5
0.08 nM	B6
0.07 nM	B7
0.05 nM	B8
0.08 nM	B9
0.04 nM	B10

Molecular target: T1, human GDF15-his
Test: cell-based or functional assay
Remark: another data set of the same source

IC50 (read off the curve), SRE-luciferase signal in 293T-GFRAL/RET-Luc cells with human GDF15-his	Binder
~0.2 nM	B11
~0.1 nM	B12
~0.1 nM	B13
~0.1 nM	B14

Molecular target: T2, human GDF15-hFc
Test: SPR, Biacore 8K; antibody on CM5 chip
Procedure: (§1) The binding affinity of anti-GDF15 antibodies for human GDF15, rhesus monkey GDF15, mouse GDF15 were characterized using Biacore 8K (GE). The anti-GDF15 antibodies were stabilized on sensor chip CM5. The binding affinity of antibody for GDF15 proteins from different species at various concentrations was measured. Using the SPR technology, the association and dissociation rates were measured, and binding affinity was determined.

Kd	koff	kon	Binder
1.07 nM	0.000137 s⁻¹	129000 M⁻¹ s⁻¹	B12
0.584 nM	6.95e-05 s⁻¹	119000 M⁻¹ s⁻¹	B13

Molecular target: T3, rhesus monkey GDF15-hFc
Test: SPR, Biacore 8K; antibody on CM5 chip
Procedure: as §1

Kd	koff	kon	Binder
1.28 nM	0.00263 s⁻¹	2.06e+06 M⁻¹ s⁻¹	B12
1.23 nM	0.00421 s⁻¹	3.43e+06 M⁻¹ s⁻¹	B13

Molecular target: T4, mouse GDF15-hFc
Test: SPR, Biacore 8K; antibody on CM5 chip
Procedure: as §1

Kd	koff	kon	Binder
118 nM	0.00175 s⁻¹	14800 M⁻¹ s⁻¹	B12
106 nM	0.000869 s⁻¹	8210 M⁻¹ s⁻¹	B13

Molecular target: T1, human GDF15-his
Test: ELISA as in Example 2; antibody coated, human GDF15-his titrated
Procedure: (§2) ELISA binding assay: The purified monoclonal antibody was subjected to a binding assay with human GDF15-his protein. The binding assay was designed to characterize the binding activity of the anti-GDF15 antibody. Briefly, a 96-well plate was coated with anti-GDF15 antibody (200 ng/well) and incubated for 1 hour at 37° C. The plates were washed with PBST and then blocked for 1 hour at room temperature using 1% BSA. Then 100 µl/well of gradient-diluted human GDF15-his solution (dose range 0-50 μg/ml) was added into plates. After incubation, 100 μl of anti-his tag secondary antibody (anti-his-HRP (1:2000), Bersee, cat #BHR790) was added to each well. Finally, the TMB solution (100 μl/well) was added. 2M H₂SO₄ was used to stop the reaction. The OD450 was measured, and the binding curves were generated by PRISM software to analyze the affinity of candidate antibodies to human GDF15 antigen, and EC₅₀ value were calculated.

EC50	Binder
142 nM	B3
91.7 nM	B4
156 nM	B5
98.4 nM	B6
173 nM	B7
123 nM	B8
167 nM	B9
111 nM	B10

Molecular target: T2, human GDF15-hFc
Test: competition ELISA as in Example 2; GFRAL-his coated, antibody titrated against human GDF15-hFc
Procedure: (§3) The ELISA assay was performed to measure the inhibitory activity of anti-GDF15 antibodies in concentration gradients to block GDF15 binding to GFRAL receptor. IC₅₀ values were used as a measure for neutralizing activity of candidate molecules. Briefly, 96-well plates were coated with 100 ng/well of GFRAL-his protein (SEQ ID NO: 74), and incubated for 1 h at 37° C. The plates were washed with PBST and then blocked for 1 hour at 37° C. with 1% BSA. Gradient-diluted antibodies (dose range 0˜10 μg/ml) was added into each well, immediately followed by equal volume of human GDF15-hFc protein ([…]). After incubation and washing, 100 μl of anti-human IgG secondary antibody (goat anti-human IgG-HRP, Sigma, A8667) was added to each well. Finally, TMB solution (100 μl/well) was added. 2M H₂SO₄ was used to stop the reaction. The OD450 was measured and the binding curve was generated by PRISM to calculate the IC₅₀ value.

IC50	Binder
1 nM	B3
1 nM	B4
0.8 nM	B5
0.89 nM	B6
1.24 nM	B7
1.49 nM	B8
1.14 nM	B9
1.36 nM	B10
1.74 nM	B11
1.72 nM	B12
1.9 nM	B13
1.73 nM	B14

Molecular target: T2, human GDF15-hFc
Test: competition ELISA; GFRAL-his coated, antibody titrated against human GDF15-hFc, anti-human IgG-HRP detection
Procedure: as §3

IC50	Binder
1.63 nM	B1
1.62 nM	B2

Molecular target: T1, human GDF15-his
Test: ELISA as in Example 2: plate coated with the antibody, graded human GDF15-his, anti-his-HRP, OD450; the sheet's x axis reads 'Log GDF15 Antibody (nM)'
Procedure: as §2

EC50 (read off the curve)	Binder
~50 nM	B11
~60 nM	B12
~60 nM	B13
~60 nM	B14
